Reference: publication PMC13107021, “Structural basis for suramin binding to the C-terminal domain of the SARS-CoV-2 nucleocapsid protein”

Molecular target: SARS-CoV-2 N-CTD (nucleocapsid C-terminal domain) (SARS-CoV-2, UniProt P0DTC9 247-364)
Experiment: BLI; BLI and EMSA: 25 mM sodium phosphate, 50 mM NaCl, pH 6.0; EMSA 25 C, 30 min, 10 uM RNA, 20% native PAGE
Conditions: protein: recombinant; biotinylated for BLI; 15N-labelled for NMR; chain copies: 2; label: none

B1: 15-nt SARS-CoV-2 genome-derived RNA (ssRNA)
RNA: AUAUGGAAGAGCCCUA
Binder B1 has a Kd of roughly 10.1 µM.
